# Data from US20240190987A1, “Engineered EpCam Binding Antibodies” (TigaTX, priority 2021, published 2024).
# Entries after “also recorded” stand apart in the source; their conditions may differ.
# B1: Ab1073: LS2B R7M2 Fab (antibody, V domains shown)
# VH: EVQLVESGGGLVQPGGSLRLSCAASGFDFSSYSIHWVRQAPGKGLEWVAAISPYYGSTYYADSVKGRFTISADTSKNTAYLQMNSLRAEDTAVYYCARYYEYYKYDLYAGSLGFDYWGQGTLVTVSS
# VL: DIQMTQSPSSLSASVGDRVTITCRASQSVSSAVAWYQQKPGKAPKLLIYSASSLYSGVPSRFSGSRSGTDFTLTISSLQPEDFATYYCQQGGYSLITFGQGTKVEIK
# B2: Ab1045: LS2B; HC: S50A+W98Y on Ab0902 (antibody, V domains shown)
# VH: B1 VH
# VL: B1 VL
# B3: Ab0899: humanized LS2A R3M1 (protein)
# scFv: QVQLVQSGAEVKKPGASVKVSCKASGYTFTSYWMHWVRQHPGQGLEWMGMIHPNSGGTNYAQKFQGRVTMTRDTSTSTVYMELSSLRSEDTAVYYCAMGDYVSRDYWGQGTLVTVSSGGGGSGGGGSGGGGSEIVLTQSPGTLSLSPGERATLSCRASSSVSSSYLHWYQQKPGQAPRLLIYSTSSRATGIPDRFSGSGSGTDFTLTISRLEPEDFAVYYCQQYSGYQFTFGQGTKLEIK
# modifications: left off: a dimerising Fc or GST; small tags and cut ends
# notes: humanized LS2A R3M1
# B4: hSP34v68: humanized SP34 anti-CD3 clone v68, scFv-Fc (antibody)
# heavy: EVQLVESGGGLVQPGGSLRLSCAASGFTFNTYAMNWVRQAPGKGLEWVARIRSKYNNYATYYADSVKGRFTISRDDSKSILYLQMNSLRAEDTAVYYCVRHGNFGNSYVSWFAYWGQGTLVTVSSGGGGSGGGGSGGGGSDIQVTQSPSSLSASVGDRVTITCRSSTGAVTTSNYANWVQQKPGKAFKGLIGGTNKLASGVPSRFSGSLSGDDATLTISSLQPEDFATYYCALWYSNLWVFGQGTKLEIKGGGGSDKTHTCPPCPAPEAAGGPSVFLFPPKPKDTLMISRTPEVTCVVVDVSHEDPEVKFNWYVDGVEVHNAKTKPREEQYNSTYRVVSVLTVLHQDWLNGKEYKCKVSNKALGAPIEKTISKAKGQPREPQVYTLPPSRDELTKNQVSLTCLVKGFYPSDIAVEWESNGQPENNYKTTPPVLDSDGSFFLYSKLTVDKSRWQQGNVFSCSVMHEALHNHYTQKSLSLSPGK
# modifications: REGION 1..482: note = Ab0640 HC
# notes: humanized SP34 anti-CD3 clone v68, scFv-Fc
# B5: Ab0223: LS2A humanized parent (antibody, V domains shown)
# VH: QVQLVQSGAEVKKPGASVKVSCKASGYTFTSYWMHWVRQAPGQGLEWMGIIHPNSGGTSYAQKFQGRVTMTRDTSTSTVYMELSSLRSEDTAVYYCAMGDYVSRDYWGQGTLVTVSS
# VL: EIVLTQSPGTLSLSPGERATLSCRASSSVSSSYLHWYQQKPGQAPRLLIYSTSSRATGIPDRFSGSGSGTDFTLTISRLEPEDFAVYYCQQYSGYLFTFGQGTKLEIK
# How the values were obtained:
# LS2A R3M1 (Ab0786) = assay: BLI binding of LS2B variants to LS2A R3M1 (Ab0786) with indinavir
# Protocol: Binding kinetics were measured by biolayer interferometry (BLI). Biotinylated-Ab0785 (LS2A R2M34 Fab) or biotinylated-Ab0786 (LS2A R3M1 Fab) was captured by streptavidin biosensors and binding to Ab1071 (LS2B R5M2 Fab), Ab1072 (LS2B R7M1 Fab), and Ab1073 (LS2B R7M2 Fab) was measured in the presence of […].
# In R6 of engineering, alanine scanning of clone R4M16 were performed to find improved binding to LS2A R3M2 (Ab0787) and LS2A R3M1 (Ab0786). Variants were screened for binding to LS2A (Ab0223) and LS2A R3M2 (Ab0787) with a single-point kinetic screen.
# In R7, combination mutants from R6 were designed to generate further affinity variants. Variants were screened for binding to LS2A Ab0787 and Ab0786 with a single-point kinetic screen. Five-point kinetics was measured for a subset of molecules.
# (§1) Bio-layer interferometry (BLI) data were measured using an Octet RED384 (ForteBio) instrument. Antigens of interest were immobilized on an AHC biosensor and loaded until a 0.4-0.6-nm signal was achieved. Purified antibodies were used as the analyte premixed with 10 μM Indinavir or 0.05% DMSO vehicle. PBSTB (PBS, pH 7.4, 0.05% Tween-20, 0.2% BSA) was used for all buffers for BLI. Data were analyzed using ForteBio Octet analysis software and kinetic parameters were determined using a 1:1 monovalent binding model.
# Ag0067 (LS2A R2M9) = assay: BLI LITE Switch indinavir washout/reversibility kinetics; format: binding
# Protocol: Binding was measured by biolayer interferometry (BLI). Biotinylated-Ag0067 (LS2A R2M9) was captured on streptavidin biosensors. Binding of 50 nM Ab1073 (LS2B R7M2) to Ag0067 was allowed to reach steady-state in the presence of 1 μM IDV. Complex dissociation was subsequently performed for 2 hours in buffer containing (1) 50 nM Ab1073 and 1 μM IDV, (2) 50 nM Ab1073 and vehicle (washout), and (3) vehicle only. […] In 2 hours of IDV washout, the LITE Switch dissociated to nearly 0% complex, whereas complete complex dissociation was observed within 10 min upon removal of both Ab1073 and IDV.
# LITE Switch indinivir (IDV) washout/reversibility kinetics (FIG. 21) were measured by biolayer interferometry (BLI) on an Octet® Qke (Sartorius) instrument. Biotinylated scFv-Fc Ag67, in the presence of 1 μM IDV or 0.05% DMSO vehicle, was immobilized on streptavidin biosensors and loaded to a signal of 1.2-1.8 nm. After loading, biosensors were blocked with 10 μM biotin containing 1 μM IDV or vehicle. […] Data were analyzed using ForteBio Data Analysis HT software version 12.0.2.59. Dissociation constants were determined using a 1:1 monovalent binding model, local fitting, and with dissociation baseline to zero. Data were additionally analyzed using GraphPad Prism 9 software version 9.1.2 (225) with a one-phase exponential decay nonlinear regression model. […]
# [1] = Differential scanning fluorimetry (DSF) melting temperature; format: physicochemical
# Protocol: DSF was performed on a LC480 Lightcycler Instrument II (Roche). Purified recombinant protein was diluted to 5 μM in DSF buffer (PBS, pH 7.4, Sypro Orange 5×) with small molecule (10 μM VTX) or vehicle (0.05% DMSO) and then heated with a temperature gradient (0.01° C./s) from 25 to 95° C. Data were continuously acquired at ˜465 nm (excitation) and ˜580 nm (emission). Data was analyzed to generate first derivative curves in which the curve maximum was reported as the melting temperature of the protein.
# [2] = SPR binding of free indinavir to LS2A clones; conditions: read-out: Affinity to free Indinavir by SPR
# Protocol: Detailed methods are described in the methods section. […] A 3-fold serial dilution of indinavir was injected over sensor chip and binding was measured using single-cycle kinetics. The data was double reference subtracted and fit to a 1:1 Langmuir kinetic model.
# All assays were performed at 25° C. in 1×PBS-P+ buffer made from a 10× buffer stock (Cytiva 28995084). […] For Ab0759, a single-cycle kinetics experiment was performed with five sequential injections of 3-fold serial diluted (37, 111, 333, 1000, 3000 nM) indinavir at 30 μL/min for 240 seconds each and dissociation was monitored for 600 seconds. […] The data was double referenced subtracted to the reference lane and five sequential injections of 0 nM indinavir. The kinetic data was fit to a 1:1 Langmuir model to determine the association and dissociation rate constants.
# cynomolgus macaque PBMCs = assay: Surface staining of cyno PBMCs by flow cytometry; format: cell-based; conditions: TCRab+, CD4+ and CD8+ subsets
# Protocol: (§2) FIG. 32 depicts Ab1070 binding to human and cynomolgus macaque PBMCs. Binding was measured by flow cytometry using a secondary fluorescent antibody (IgG-PE). T-cell subsets were identified using additional fluorescent antibodies against TCRab, CD4 and CD8 and gated prior to quantifying the median fluorescence intensity (MFI) of the IgG-PE channel. […] The assay was performed with up to 10 μM antibodies (titrated as indicated).
# (§3) Peripheral blood mononuclear cells (PBMCs) from healthy cynomolgus macaques (Chinese origin) were obtained commercially (iQ Biosciences, Berkeley, CA). Peripheral blood mononuclear cells (PBMCs) from healthy human donors were isolated from leukapheresis packs (leukopaks) from deidentified healthy adult donors (StemCell Technologies, Vancouver, BC). Human PBMCs were isolated using the EasySep Direct Human PBMC Kit (StemCell Technologies) then cryopreserved in DMEM with 10% FBS and 10% DMSO. Frozen PBMC cryovials were thawed on the day of experiments and washed complete growth media (DMEM+10% FBS+1% penicillin/streptomycin). Cells were resuspended in growth media and transferred to a 96-well U-bottom plate at 55,000 cell/well. Human TruStain FcX (Fc Receptor Blocking Solution; Catalog number 422302; BioLegend, San Diego, CA) was added at a 1:20 final dilution of the manufacturer's stock and incubated for 10 minutes at room temperature in a volume of 25 μL. […]
# human PBMCs = assay: Surface staining of human PBMCs by flow cytometry; format: cell-based; conditions: TCRab+, CD4+ and CD8+ subsets
# Protocol: as §2, §3
# [3] = Ab0640 pharmacokinetics in mice; format: in vivo; conditions: 6.7 mg/kg single IV, C57BL/6 mice
# Protocol: Plasma samples were collected at 30 min, 24 hr, 72 hr, and 168 hr and concentrations of the antibodies were determined by ELISA.
# Female […] mice (age 10-12 weeks) were distributed into 2 groups (n=5 per group). Antibodies were diluted in sterile PBS and injected intravenously at 6.7 mg/kg. Blood (55 μL from the retroorbital sinus) was sampled serially at 4 time points (30 min, 1 day, 3 days, 7 days), processed to plasma, diluted 1:10 in 50% glycerol+PBS, then cryopreserved. Plasma concentrations were quantified using an anti-human IgG sandwich ELISA that was developed and qualified in-house. The capture antibody for the ELISA was goat anti-human IgG (Cat. No. 2049-01; Southern Biotech, Birmingham, AL) coated on 96-well Nunc-Immuno Maxisorp plates (Thermo Fisher Scientific) at […] for 1 hr at 37° C. The detection antibody was mouse anti-human IgG Fc-HRP (Cat. No. 9042-05; Southern Biotech, Birmingham, AL) at 1:32,000 dilution of the manufacturer stock. ELISA coating, blocking, wash, and TMB substrate buffers from BioLegend were used according to the manufacturer's instructions. Non-compartmental pharmacokinetic parameters were calculated using the PKNCA package for R (doi: 10.1007/s10928-015-9432-2).
# Ab0902 (LS2B R5M2) = assay: BLI indinavir-dependent binding of LS2A Ab0223 to LS2B Ab0902
# Protocol: Binding was measured by biolayer interferometry (BLI). Ab0902 (LS2B R5M2) was captured by anti-hIgG Fc capture (AHC) biosensors and kinetics was measured to Ab0223 (LS2A humanized parent) in the presence of […].
# A series of biophysical experiments was conducted to further elucidate a mechanism for Indinavir switch assembly. Biolayer interferometry experiments were performed to measure LS2A and LS21B assembly in the presence and absence of saturating concentrations of Indinavir. […] A BLI kinetics assay was performed to assess the reversibility kinetics of the LS2A/LS2B complex upon Indinavir washout.
# as §1
molecule,measurement,setting,value
B1,binding to LS2A clones (FIG. 17),"LS2A R3M1 (Ab0786); biotinylated Ab0785 (R2M34) or Ab0786 (R3M1) captured, indinavir present",improved affinities
same,LITE Switch reversibility at constant Ab1073 and IDV,Ag0067 (LS2A R2M9); 50 nM Ab1073 and 1 μM IDV,no LITE Switch reversibility was observed
same,complex remaining after IDV washout,"Ag0067 (LS2A R2M9); 2 hours, 50 nM Ab1073 and vehicle",~0%
B2,TM (° C.),[1]; Table 15,77.7 °C
same,Kd,"LS2A R3M1 (Ab0786); five-point kinetics, values equal Table 15 column LS2A Ab0786",40 nM
B3,Kd,[2],4.6 nM
same,TM (° C.),"[1]; scFv-Fc format, LS2A R3 (Table 20)",56.1 °C
B4,binding to cyno PBMC T-cell subsets,cynomolgus macaque PBMCs,Detectable and saturable binding
same,binding to human PBMC T-cell subsets,human PBMCs,Detectable and saturable binding
same,TM (° C.),"[1]; DSF, hSP34v68 R1 variants (Table 23)",60.7 °C
same,half-life,[3],112 h
B5,Kd,"Ab0902 (LS2B R5M2); in the presence of 10 μM IDV, read-out: affinity for binding to Ab0902",1.6 nM
same,binding to Ab0902 in the absence of Indinavir,Ab0902 (LS2B R5M2); no indinavir,no binding was detected; also recorded: no detectable interaction
